# Results from patent US20080070838A1, “Growth Factor Treatment for Asthma” (University of Southampton, priority 2004, published 2008).
# “Also recorded” adds a separate entry of the source.
# Experiments:
# [1] = test system: primary bronchial epithelial cells from normal subjects; assay: Proliferation assay (methylene blue), primary bronchial epithelial cell cultures from normal controls; assay type: cell-based, human; conditions: 1.7 nM EGF for 24 hours vs serum free medium, FIG. 2a
# Description: (§1) Bronchial brushings were taken from non-atopic, non-asthmatic control subjects and asthmatic subjects. Volunteers were characterised according to symptoms, pulmonary function and medication. Assessment of asthma severity was in accordance with the GINA guidelines on the diagnosis and management of asthma (Bousquet (2000) Global initiative for asthma (GINA) and its objectives.
# (§2) Bronchial brushings were obtained by bronchoscopy using a fibreoptic bronchoscope (Olympus FB-20D, Tokyo, Japan) in accordance with standard published guidelines (Hurd S. Z. (1991) J. Allergy Clin. Immunol. 88, 808-814). Bronchial epithelial cells were obtained using a standard sterile single-sheathed nylon cytology brush (Olympus BC 9C-26101; Tokyo, Japan). […] Epithelial cell purity was assessed by performing differential cell counts on cytospins of the harvested cell suspension. […]
# (§3) Cells were prepared in 24 well trays at a seeding density of a minimum of 4×10^4 cells/ml primary BECs. […] Absorbance of the eluant was determined using a Multiskan ascent plate reader after a 1:10 dilution with 1:1 ethanol:0.1% HCl to provide an absorbance within the linear range of the plate reader. Absorbance was read using a 630 nm filter and each sample was tested in duplicate. A standard curve was generated by direct cell counting to enable cell number to be related to methylene blue readings. […]
# [2] = test system: primary bronchial epithelial cells from asthmatic subjects; assay: Proliferation assay (methylene blue), primary bronchial epithelial cell cultures from asthmatic subjects; assay type: cell-based, human; conditions: 1.7 nM EGF for 24 hours vs serum free medium, FIG. 2b
# Description: as §1, §2, §3
molecule,measurement,setting,value
EGF: epithelial growth factor; wild-type mouse EGF produced in Pischia pastoris (protein) WQTGNCQPGPLERSERSGTCAGPAPFLVFSQGKSISRIDPDGTNHQQLVVDAGISADMDIHYKKERLYWVDVERQVLLRVFLNGTGLEKVCNVERKVSGLAIDWIDDEVLWVDQQNGVITVTDMTGKNSRVLLSSLKHPSNIAVDPIERLMFWSSEVTGSLHRAHLKGVDVKTLLETGGISVLTLDVLDKRLFWVQDSGEGSHAYIHSCDYEGGSVRLIRHQARHSLSSMAFFGDRIFYSVLKSKAIWIANKHTGKDTVRINLHPSFVTPGKLMVVHPRAQPRTEDAAKDPDPELLKQRGRPCRFGLCERDPKSHSSACAEGYTLSRDRKYCEDVNECATQNHGCTLGCENTPGSYHCTCPTGFVLLPDGKQCHELVSCPGNVSKCSHGCVLTSDGPRCICPAGSVLGRDGKTCTGCSSPDNGGCSQICLPLRPGSWECDCFPGYDLQSDRKSCAASGPQPLLLFANSQDIRHMHFDGTDYKVLLSRQMGMVFALDYDPVESKIYFAQTALKWIERANMDGSQRERLITEGVDTLEGLALDWIGRRIYWTDSGKSVVGGSDLSGKHHRIIIQERISRPRGIAVHPRARRLFWTDVGMSPRIESASLQGSDRVLIASSNLLEPSGITIDYLTDTLYWCDTKRSVIEMANLDGSKRRRLIQNDVGHPFSLAVFEDHLWVSDWAIPSVIRVNKRTGQNRVRLQGSMLKPSSLVVVHPLAKPGADPCLYRNGGCEHICQESLGTARCLCREGFVKAWDGKMCLPQDYPILSGENADLSKEVTSLSNSTQAEVPDDDGTESSTLVAEIMVSGMNYEDDCGPGGCGSHARCVSDGETAECQCLKGFARDGNLCSDIDECVLARSDCPSTSSRCINTEGGYVCRCSEGYEGDGISCFDIDECQRGAHNCGENAACTNTEGGYNCTCAGRPSSPGLSCPDSTAPSLLGEDGHHLDRNSYPGCPSSYDGYCLNGGVCMHIESLDSYTCNCVIGYSGDRCQTRDLRWWELRHAGYGQKHDIMVVAVCMVALVLLLVLGMWGTYYYRTRKQLSNPPKNPCDEPSGSVSSSGPNSSSGAAVASCPQPWFVVLEKHQDPKNGSLPADGTNGAVVDAGLSPSLQLGSVHLTSWRQKPHIDGMGTGQSCWIPPSSDRGPQEIEGNSHLPSYRPVGPEKLHSLQSANGSCHERAPDLPRQTEPVQ,effect on cell number (proliferation),[1],no effect on cell number; also recorded: unaffected
same,effect on cell number (proliferation),[2],small but significant increase in cell number; also recorded: require exogenous EGF for maximal proliferation
